In article PMC3074162:

T1: ParB 65-139 (RHH domain) (Leifsonia xyli subsp. cynodontis …, UniProt Q6EEF9 65-139)
T1 sequence: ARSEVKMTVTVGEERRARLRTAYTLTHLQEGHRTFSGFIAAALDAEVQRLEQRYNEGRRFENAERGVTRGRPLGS

B1: R3-18-3T (dsDNA)
DNA 1: GGTATAGGTGGAAAAGCC
DNA 2: GGCTTTTCCACCTATACC
B2: R3-18-6T (dsDNA)
DNA 1: GGAATTGGTGGAAAAGCC
DNA 2: GGCTTTTCCACCAATTCC
B3: R4-20 (dsDNA)
DNA 1: TGGAAAAGCCAGAAACAGTG
DNA 2: CACTGTTTCTGGCTTTTCCA
B4: R3-18-9G (dsDNA)
DNA 1: GGAATAGGGGGAAAAGCC
DNA 2: GGCTTTTCCCCCTATTCC
B5: R3-18-18G (dsDNA)
DNA 1: GGAATAGGTGGAAAAGCG
DNA 2: CGCTTTTCCACCTATTCC
B6: R3-18-1T (dsDNA)
DNA 1: TGAATAGGTGGAAAAGCC
DNA 2: GGCTTTTCCACCTATTCA
B7: R3-18-3C (dsDNA)
DNA 1: GGCATAGGTGGAAAAGCC
DNA 2: GGCTTTTCCACCTATGCC
B8: R3-18-4T (dsDNA)
DNA 1: GGATTAGGTGGAAAAGCC
DNA 2: GGCTTTTCCACCTAATCC
B9: R3-18-1A (dsDNA)
DNA 1: AGAATAGGTGGAAAAGCC
DNA 2: GGCTTTTCCACCTATTCT
B10: R3-18-8A (dsDNA)
DNA 1: GGAATAGATGGAAAAGCC
DNA 2: GGCTTTTCCATCTATTCC
B11: R3-18-5C (dsDNA)
DNA 1: GGAACAGGTGGAAAAGCC
DNA 2: GGCTTTTCCACCTGTTCC
B12: R3-18-13C (dsDNA)
DNA 1: GGAATAGGTGGACAAGCC
DNA 2: GGCTTGTCCACCTATTCC
B13: R3-18-9A (dsDNA)
DNA 1: GGAATAGGAGGAAAAGCC
DNA 2: GGCTTTTCCTCCTATTCC
B14: R3-18-14C (dsDNA)
DNA 1: GGAATAGGTGGAACAGCC
DNA 2: GGCTGTTCCACCTATTCC
B15: R3-18-2T (dsDNA)
DNA 1: GTAATAGGTGGAAAAGCC
DNA 2: GGCTTTTCCACCTATTAC
B16: R3-18-15G (dsDNA)
DNA 1: GGAATAGGTGGAAAGGCC
DNA 2: GGCCTTTCCACCTATTCC
B17: R4-16 (dsDNA)
DNA 1: GAAAAGCCAGAAACAG
DNA 2: CTGTTTCTGGCTTTTC
B18: R3-18-11T (dsDNA)
DNA 1: GGAATAGGTGTAAAAGCC
DNA 2: GGCTTTTACACCTATTCC
B19: R3-18-8T (dsDNA)
DNA 1: GGAATAGTTGGAAAAGCC
DNA 2: GGCTTTTCCAACTATTCC
B20: R3-18-12C (dsDNA)
DNA 1: GGAATAGGTGGCAAAGCC
DNA 2: GGCTTTGCCACCTATTCC
B21: R3-18-10T (dsDNA)
DNA 1: GGAATAGGTTGAAAAGCC
DNA 2: GGCTTTTCAACCTATTCC
B22: R3-18-6G (dsDNA)
DNA 1: GGAATGGGTGGAAAAGCC
DNA 2: GGCTTTTCCACCCATTCC
B23: R3-18-16T (dsDNA)
DNA 1: GGAATAGGTGGAAAATCC
DNA 2: GGATTTTCCACCTATTCC
B24: R3-18-1C (dsDNA)
DNA 1: CGAATAGGTGGAAAAGCC
DNA 2: GGCTTTTCCACCTATTCG
B25: R3-18-9C (dsDNA)
DNA 1: GGAATAGGCGGAAAAGCC
DNA 2: GGCTTTTCCGCCTATTCC
B26: R3-18-5A (dsDNA)
DNA 1: GGAAAAGGTGGAAAAGCC
DNA 2: GGCTTTTCCACCTTTTCC
B27: R3-18-14G (dsDNA)
DNA 1: GGAATAGGTGGAAGAGCC
DNA 2: GGCTCTTCCACCTATTCC
B28: R3-18-7A (dsDNA)
DNA 1: GGAATAAGTGGAAAAGCC
DNA 2: GGCTTTTCCACTTATTCC
B29: R3-18-13T (dsDNA)
DNA 1: GGAATAGGTGGATAAGCC
DNA 2: GGCTTATCCACCTATTCC
B30: R3-18-2A (dsDNA)
DNA 1: GAAATAGGTGGAAAAGCC
DNA 2: GGCTTTTCCACCTATTTC
B31: R3-18-16A (dsDNA)
DNA 1: GGAATAGGTGGAAAAACC
DNA 2: GGTTTTTCCACCTATTCC
B32: R3-18-16C (dsDNA)
DNA 1: GGAATAGGTGGAAAACCC
DNA 2: GGGTTTTCCACCTATTCC
B33: R3-18-8C (dsDNA)
DNA 1: GGAATAGCTGGAAAAGCC
DNA 2: GGCTTTTCCAGCTATTCC
B34: R2-18 (dsDNA)
DNA 1: AGTAAAGTAGGAATAGGT
DNA 2: ACCTATTCCTACTTTACT
B35: R3-18-7C (dsDNA)
DNA 1: GGAATACGTGGAAAAGCC
DNA 2: GGCTTTTCCACGTATTCC
B36: R3-18-4G (dsDNA)
DNA 1: GGAGTAGGTGGAAAAGCC
DNA 2: GGCTTTTCCACCTACTCC
B37: R3-18-18A (dsDNA)
DNA 1: GGAATAGGTGGAAAAGCA
DNA 2: TGCTTTTCCACCTATTCC
B38: R3-18-2C (dsDNA)
DNA 1: GCAATAGGTGGAAAAGCC
DNA 2: GGCTTTTCCACCTATTGC
B39: R3-18-12T (dsDNA)
DNA 1: GGAATAGGTGGTAAAGCC
DNA 2: GGCTTTACCACCTATTCC
B40: R3-18-14T (dsDNA)
DNA 1: GGAATAGGTGGAATAGCC
DNA 2: GGCTATTCCACCTATTCC
B41: R3-18-17A (dsDNA)
DNA 1: GGAATAGGTGGAAAAGAC
DNA 2: GTCTTTTCCACCTATTCC
B42: R3-18-11C (dsDNA)
DNA 1: GGAATAGGTGCAAAAGCC
DNA 2: GGCTTTTGCACCTATTCC
B43: R3-18-13G (dsDNA)
DNA 1: GGAATAGGTGGAGAAGCC
DNA 2: GGCTTCTCCACCTATTCC
B44: R3-18-17T (dsDNA)
DNA 1: GGAATAGGTGGAAAAGTC
DNA 2: GACTTTTCCACCTATTCC
B45: R3-18-12G (dsDNA)
DNA 1: GGAATAGGTGGGAAAGCC
DNA 2: GGCTTTCCCACCTATTCC
B46: R3-18-4C (dsDNA)
DNA 1: GGACTAGGTGGAAAAGCC
DNA 2: GGCTTTTCCACCTAGTCC
B47: R3-18-15T (dsDNA)
DNA 1: GGAATAGGTGGAAATGCC
DNA 2: GGCATTTCCACCTATTCC
B48: R3-18-6C (dsDNA)
DNA 1: GGAATCGGTGGAAAAGCC
DNA 2: GGCTTTTCCACCGATTCC
B49: R8-18 (dsDNA)
DNA 1: GGAAAAGCTGGAATTGTT
DNA 2: AACAATTCCAGCTTTTCC
B50: R3-18-15C (dsDNA)
DNA 1: GGAATAGGTGGAAACGCC
DNA 2: GGCGTTTCCACCTATTCC
B51: R4-14 (dsDNA)
DNA 1: AAAAGCCAGAAACA
DNA 2: TGTTTCTGGCTTTT
B52: R3-18-11A (dsDNA)
DNA 1: GGAATAGGTGAAAAAGCC
DNA 2: GGCTTTTTCACCTATTCC
B53: R3-18-17G (dsDNA)
DNA 1: GGAATAGGTGGAAAAGGC
DNA 2: GCCTTTTCCACCTATTCC
B54: R3-18-5G (dsDNA)
DNA 1: GGAAGAGGTGGAAAAGCC
DNA 2: GGCTTTTCCACCTCTTCC
B55: R1-18 (dsDNA)
DNA 1: TGGCTATCCAGTAAAGTA
DNA 2: TACTTTACTGGATAGCCA
B56: R3-18-18T (dsDNA)
DNA 1: GGAATAGGTGGAAAAGCT
DNA 2: AGCTTTTCCACCTATTCC
B57: R3-18-7T (dsDNA)
DNA 1: GGAATATGTGGAAAAGCC
DNA 2: GGCTTTTCCACATATTCC
B58: R3-18-3G (dsDNA)
DNA 1: GGGATAGGTGGAAAAGCC
DNA 2: GGCTTTTCCACCTATCCC

Biological target: T1, ParB 65-139 (RHH domain)
Experiment: ITC

Binder | Kd [nM] | binding result
B1 | 123 ± 12 | 
B2 | 37 ± 5 | 
B3 | 68 ± 48 | 
B4 | 365 ± 57 | 
B5 | 70 ± 17 | 
B6 | 67 ± 6 | 
B7 | 89 ± 13 | 
B8 | 33 ± 8 | 
B9 | 56 ± 12 | 
B10 | 30 ± 7 | 
B11 | 39 ± 13 | 
B12 | 46 ± 12 | 
B13 | 143 ± 31 | 
B14 | 33 ± 10 | 
B15 | 187 ± 20 | 
B16 | 88 ± 12 | 
B17 | 530 ± 50 | 
B18 | 41 ± 9 | 
B19 | 17 ± 6 | 
B20 | 58 ± 31 | 

Binder | Kd [nM] | binding result
B21 | 18 ± 2 | 
B22 | 209 ± 77 | 
B23 | 16 ± 6 | 
B24 | 216 ± 22 | 
B25 | 46 ± 11 | 
B26 | 27 ± 11 | 
B27 | 42 ± 9 | 
B28 | 15 ± 5 | 
B29 | 73 ± 22 | 
B30 | 59 ± 29 | 
B31 | 22 ± 9 | 
B32 | 20 ± 7 | 
B33 | 32 ± 8 | 
B34 | 380 ± 100 | 
B35 | 36 ± 9 | 
B36 | 62 ± 15 | 
B37 | 46 ± 10 | 
B38 | 189 ± 22 | 
B39 | 57 ± 16 | 
B40 | 46 ± 8 | 

Binder | Kd [nM] | binding result
B41 | 84 ± 13 | 
B42 | 56 ± 11 | 
B43 | 64 ± 15 | 
B44 | 30 ± 8 | 
B45 | 203 ± 43 | 
B46 | 45 ± 12 | 
B47 | 30 ± 6 | 
B48 | 60 ± 28 | 
B49 | 56 ± 12 | 
B50 | 81 ± 8 | 
B51 |  | no binding
B52 | 44 ± 21 | 
B53 | 35 ± 11 | 
B54 | 38 ± 9 | 
B55 | 950 ± 680 | 
B56 | 32 ± 6 | 
B57 | 35 ± 5 | 
B58 | 121 ± 31 | 
